Source: publication PMC3884069 (Cellular and molecular life sciences : CMLS, 2012)

B1: HLA-G4 (membrane-bound HLA-G isoform, α1–α2 domains) (natural protein, human, UniProt P17693-4 25-246, looked up)
MHC heavy: GSHSMRYFSAAVSRPGRGEPRFIAMGYVDDTQFVRFDSDSACPRMEPRAPWVEQEGPEYWEEETRNTKAHAQTDRMNLQTLRGYYNQSEASSHTLQWMIGCDLGSDGRLLRGYEQYAYDGKDYLALNEDLRSWTAADTAAQISKRKCEAANVAEQRRAYLEGTCVEWLHRYLENGKEMLQRAKQSSLPTIPIMGIVAGLVVLAAVVTGAAVAAVLWRKKSSD
B2: HLA-G2 (membrane-bound HLA-G isoform, α1–α3 domains) (natural protein, human, UniProt P17693-2 25-246, looked up)
MHC heavy: GSHSMRYFSAAVSRPGRGEPRFIAMGYVDDTQFVRFDSDSACPRMEPRAPWVEQEGPEYWEEETRNTKAHAQTDRMNLQTLRGYYNQSEANPPKTHVTHHPVFDYEATLRCWALGFYPAEIILTWQRDGEDQTQDVELVETRPAGDGTFQKWAAVVVPSGEEQRYTCHVQHEGLPEPLMLRWKQSSLPTIPIMGIVAGLVVLAAVVTGAAVAAVLWRKKSSD

Columns and labels:
[1] = molecular target: HLA-G6 (soluble HLA-G isoform, α1–α3 domains) (human) (UniProt P17693); experiment: non-reducing SDS-PAGE and western blot
[2] = molecular target: the molecule itself; experiment: non-reducing SDS-PAGE and western blot

Molecule | stoichiometry N [1] | stoichiometry N [2]
HLA-G6 (soluble HLA-G isoform, α1–α3 domains) (from UniProt P17693-6 25-227) (natural protein) | 2 | –
B1 | – | 2
B2 | – | 2
